B1: Halo-TRAK2 [not stated] / Myc-KIF5B [mouse] (parent complex)
chain 1: MSQSQNAIFTSPTGEENLMNSNHRDSESITDVCSNEDLPEVELVSLLEEQLPQYRLKVDTLFLYENQDWTQSPHQRQHASDALSPVLAEETFRYMILGTDRVEQMTKTYNDIDMVTHLLAERDRDLELAARIGQALLKRNHVLSEQNESLEEQLGQAFDQVNQLQHELCKKDELLRIVSIASEESETDSSCSTPLRFNESFSLSQGLLQLEMLQEKLKELEEENMALRSKACHIKTETVTYEEKEQQLVSDCVKELRETNAQMSRMTEELSGKSDELIRYQEELSSLLSQIVDLQHKLKEHVIEKEELKLHLQASKDAQRQLTMELHELQDRNMECLGMLHESQEEIKELRSRSGPTAHLYFSQSYGAFTGESLAAEIEGTMRKKLSLDEESSLFKQKAQQKRVFDTVRIANDTRGRSISFPALLPIPGSNRSSVIMTAKPFESGLQQTEDKSLLNQGSSSEEVAGSSQKMGQPGPSGDSDLATALHRLSLRRQNYLSEKQFFAEEWQRKIQVLADQKEGVSGCVTPTESLASLCTTQSEITDLSSASCLRGFMPEKLQIVKPLEGSQTLYHWQQLAQPNLGTILDPRPGVITKGFTQLPGDAIYHISDLEEDEEEGITFQVQQPLEVEEKLSTSKPVTGIFLPPITSAGGPVTVATANPGKCLSCTNSTFTFTTCRILHPSDITQVTPSSGFPSLSCGSSGSSSSNTAVNSPALSYRLSIGESITNRRDSTTTFSSTMSLAKLLQERGISAKVYHSPISENPLQPLPKSLAIPSTPPNSPSHSPCPSPLPFEPRVHLSENFLASRPAETFLQEMYGLRPSRNPPDVGQLKMNLVDRLKRLGIARVVKNPGAQENGRCQEAEIGPQKPDSAVYLNSGSSLLGGLRRNQSLPVIMGSFAAPVCTSSPKMGVLKED
chain 2: MADPAECNIKVMCRFRPLNESEVNRGDKYVAKFQGEDTVMIASKPYAFDRVFQSSTSQEQVYNDCAKKIVKDVLEGYNGTIFAYGQTSSGKTHTMEGKLHDPEGMGIIPRIVQDIFNYIYSMDENLEFHIKVSYFEIYLDKIRDLLDVSKTNLSVHEDKNRVPYVKGCTERFVCSPDEVMDTIDEGKSNRHVAVTNMNEHSSRSHSIFLINVKQENTQTEQKLSGKLYLVDLAGSEKVSKTGAEGAVLDEAKNINKSLSALGNVISALAEGSTYVPYRDSKMTRILQDSLGGNCRTTIVICCSPSSYNESETKSTLLFGQRAKTIKNTVCVNVELTAEQWKKKYEKEKEKNKTLRNTIQWLENELNRWRNGETVPIDEQFDKEKANLEAFTADKDIAITSDKPAAAVGMAGSFTDAERRKCEEELAKLYKQLDDKDEEINQQSQLVEKLKTQMLDQEELLASTRRDQDNMQAELNRLQAENDASKEEVKEVLQALEELAVNYDQKSQEVEDKTKEYELLSDELNQKSATLASIDAELQKLKEMTNHQKKRAAEMMASLLKDLAEIGIAVGNNDVKQPEGTGMIDEEFTVARLYISKMKSEVKTMVKRCKQLESTQTESNKKMEENEKELAACQLRISQHEAKIKSLTEYLQNVEQKKRQLEESVDSLGEELVQLRAQEKVHEMEKEHLNKVQTANEVKQAVEQQIQSHRETHQKQISSLRDEVEAKEKLITDLQDQNQKMVLEQERLRVEHERLKATDQEKSRKLHELTVMQDRREQARQDLKGLEETVAKELQTLHNLRKLFVQDLATRVKKSAEVDSDDTGGSAAQKQKISFLENNLEQLTKVHKQLVRDNADLRCELPKLEKRLRATAERVKALESALKEAKENASRDRKRYQQEVDRIKEAVRSKNMARRGHSAQIAKPIRPGQHPAASPTHPGTVRGGGSFVQNNQPVGLRGGGGKQS

Variants of: B1
Test: co-immunoprecipitation (Halo antibody IP, western blot quantification); extracts from COS-7 cells transfected with Myc-KIF5B and Halo-tagged constructs; mean ± s.d. from three independent experiments; parent: 0.65; read off a plot

response | Variant
~0.6 | chain 1 I132D
~0.61 | chain 1 A129V, chain 1 A130V

Reference: publication PMC8319186, “Mitochondrial adaptor TRAK2 activates and functionally links opposing kinesin and dynein motors” (Nature Communications, 2021)
